Target: GST-Pin1 (UniProt Q13526)
Assay: pull-down

percent reduction of binding against wild type (densitometry)	percent of wild-type binding (densitometry)	Substance
70%	–	FLAG-MEF2C S98/110A (natural protein)
–	10%	FLAG-MEF2C S98A/S110A/S240A/S388A (natural protein)
